Assay in all cases: fluorescence polarisation; increasing concentrations of the RA/RB domain as MBP fusion protein (0.002-300 µM; or MBP alone) titrated to mGppNHp-bound RAS protein (1 µM); 30 mM Tris-HCl pH 7.4, 100 mM NaCl, 5 mM MgCl2, 3 mM DTT; Kd from a quadratic ligand-binding equation
Holding throughout (details): both partners purified

The target in assay [1] is T1, HRAS, mGppNHp-bound (human, UniProt P01112-1 1-189).
T1 construct: human HRAS; Loaded with mGppNHp, a fluorescent non-hydrolysable GTP analogue; That the RAS proteins were the pGEX (GST) constructs is surmised; also called HRAS1; p21HRAS

The target of assay [2] is T2, RIT1, mGppNHp-bound (human, UniProt Q92963 1-219).
T2 construct: human RIT1; Loaded with mGppNHp
T2 sequence (Q92963 whole entry): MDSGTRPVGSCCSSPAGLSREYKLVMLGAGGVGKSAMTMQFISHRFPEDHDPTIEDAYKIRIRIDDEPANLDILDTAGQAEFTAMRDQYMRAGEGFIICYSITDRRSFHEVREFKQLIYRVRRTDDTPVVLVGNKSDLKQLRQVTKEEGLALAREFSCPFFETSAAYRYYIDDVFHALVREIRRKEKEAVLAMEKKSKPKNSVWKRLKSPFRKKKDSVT

Assay [3] concerns the target T3, RALA, mGppNHp-bound (human, UniProt P11233 1-206).
T3 construct: human RALA; Loaded with mGppNHp
T3 sequence (looked up): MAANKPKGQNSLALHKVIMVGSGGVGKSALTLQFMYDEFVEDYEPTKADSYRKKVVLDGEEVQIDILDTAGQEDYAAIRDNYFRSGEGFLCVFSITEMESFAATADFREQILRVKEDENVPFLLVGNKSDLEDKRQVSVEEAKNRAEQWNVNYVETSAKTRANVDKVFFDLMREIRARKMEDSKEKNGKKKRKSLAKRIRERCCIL

Assay [4] has as its target T4, RRAS1, mGppNHp-bound (human, UniProt P10301 1-218).
T4 construct: human RRAS (RRAS1); Loaded with mGppNHp
T4 sequence (looked up): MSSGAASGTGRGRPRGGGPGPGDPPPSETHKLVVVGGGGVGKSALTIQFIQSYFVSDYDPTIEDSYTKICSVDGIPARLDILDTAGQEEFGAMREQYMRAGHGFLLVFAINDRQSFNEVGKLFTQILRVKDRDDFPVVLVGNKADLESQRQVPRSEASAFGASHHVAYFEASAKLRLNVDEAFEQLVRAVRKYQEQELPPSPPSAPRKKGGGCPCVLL

B1: RASSF9-to-5 variant of the RASSF9 RA domain, MBP fusion protein (domain or fragment, human, UniProt O75901 25-119, looked up)
chain: EEKEIVVWVCQEEKLDCIKTLHTTSADVIQALLEEHEATFGEKRFLLGKPSDYCIIEKWRGSERVLPPLTRILKLWKAWGDEQPNMQFVLVKADA
notes: RASSF9 RA domain (aa 25-119 of O75901, the limits of the wild-type construct) with five hotspot residues changed to those of RASSF5; source: gene synthesis (BioCat) in pMal-c5X-His vector; E. coli, purified
Usually Kd stands for the free concentration of one partner at which half of the binding sites on the other are occupied at equilibrium, for simple one-to-one binding. Turning to B1, the Kd in assay [1] came to 40 µM; in assay [2], 150 µM.

B2: RASSF2-to-1 variant of the RASSF2 RA domain, MBP fusion protein (domain or fragment, human, UniProt P50749 176-264, looked up)
chain: YNHKTSVFTPKDGSKHNVRINSTMTTPQVLKLLLNKFKIENSAEEFALYVVHTSGEKQKLKATDYPLIARILQGPCEQISKVFLMEKDQ
notes: RASSF2 RA domain (aa 176-264 of P50749, the limits of the wild-type construct) with four hotspot residues changed to those of RASSF1; source: gene synthesis (BioCat) in pMal-c5X-His vector; E. coli, purified
Take B2: the Kd is 49 µM in assay [3] and 100 µM in assay [4].

(Values after paper PMC8163975 (The Journal of Biological Chemistry, 2021).)
